US9551711B2, “Compositions and methods for detecting nitration of PKG-1α and methods of use thereof” (Augusta University Research Institute, Inc., priority 2013, dated 2017)
Non-standard residues stand in square brackets, D forms with d. Tyr(3-NO2) = N[C@@H](Cc1ccc(O)c([N+](=O)[O-])c1)C(=O)O

Assays:
PKG-1α [1] = assay: PKG catalytic activity, Michaelis-Menten kinetics for cGMP; assay type: biochemical, human; conditions: ATP 125 μM, cGMP 0-10 μM; + SIN1 = SIN-1 500 μM, 30 min
Procedure: Total PKG activity was determined using a non-radioactive immunoassay in cell lysates, according to the manufacturer's directions. Briefly, protein samples were diluted in kinase reaction buffer containing Mg^2+ and ATP (125 μM) in the presence or absence of 8-Br cGMP (10 μM) and incubated in a 96 well plate pre-coated with a PKG substrate containing threonine residues phosphorylated by PKG.
After incubation for 30 min at 30° C. to allow the phosphorylation of the bound substrate, an HRP conjugated anti-phosphothreonine specific antibody was added to convert a chromogenic substrate to a colorimetric substrate that was subsequently read spectrophotometrically at 450 nm. The change in absorbance reflected the relative activity of PKG in the sample. The results were reported as pmols of phosphate incorporated into the GST-G substrate fusion protein by active PKG in the sample in the presence or absence of cGMP (10 μM) per minute at 30° C. per μg of protein (pmol/min/μg). […] The kinetic constants were determined using nonlinear regression (curve fit) analysis (GraphPad Prism Software Inc.).
To determine the Michaelis-Menten constant (Km) for cGMP, the kinase assay was performed, as mentioned above; however, the cGMP concentration was titrated from 0-10 μM, while the ATP concentration remained constant at 125 μM.

PKG-1α [2] = assay: [3H]cGMP binding assay on immunopurified PKG-1α; parameters: species or system human; conditions: [3H]cGMP 0-200 nM, 100 ng immunopurified enzyme; average affinity of the two cGMP-binding sites; + SIN1 = cells exposed to SIN-1 500 μM, 30 min
Procedure: HEK-293T cells were transiently transfected with either the WT-PKG-1α or the Y247FPKG-1α cDNA using Effectene transfection reagent (Qiagen), according to the manufacturer's instructions. Briefly, the cells were split the day before the transfection to low cell densities (25%) and were transfected 24 h later. After 48 h of transfection, the cells were incubated in DMEM serum free media containing 1% FBS and antibiotics for 4 h and then treated with or without SIN-1 (500 μM), for 30 min. This method produced an approximate 70% transfection efficiency of HEK-293T cells, as measured using green fluorescent protein vectors. […]
The batches of supernatant were pooled, and 2 μg of anti-PKG-1α antibody per mg of protein were added to the extract and rocked at 4° C. […] After 15 min of agitation at 4° C., the beads were pelleted by centrifugation, and the supernatant containing the PKG-1α protein was collected, quantified using Bradford reagent, and stored at −80° C.
To assay the binding of cGMP to WT- and Y247F-PKG-1α the enzymes were saturated with cGMP by incubating 50 μl aliquots of the diluted PKG constructs for 60 min at room temperature with 50 μl of [^3H]cGMP and 150 μl of cGMP-binding assay mixture (25 mM K2HPO4, 25 mM KH2PO4, 1 mM EDTA, pH 6.8, 2M NaCl, 200 μM 3-isobutyl-1-methylxanthine). […] The dissociation constant (Kd) values were determined using GraphPad Prism graphics. […]

Kd (PKG-1α [2]): 32.1 ± 5.5 nM
B1: WT-PKG-1α + SIN1: WT-PKG-1α immunopurified from cells exposed to SIN-1 (500 μM, 30 min) (protein)
chain: SELEEDFAKILMLKEERIKELEKRLSEKEEEIQELKRKLHKCQSVLPVPSTHIGPRTTRAQGISAEPQTYRSFHDLRQAFRKFTKSERSKDLIKEAILDNDFMKNLELSQIQEIVDCMYPVEYGKDSCIIKEGDVGSLVYVMEDGKVEVTKEGVKLCTMGPGKVFGELAILYNCTRTATVKTLVNVKLWAIDRQCFQTIMMRTGLIKHTEYMEFLKSVPTFQSLPEEILSKLADVLEETHYENGE[Tyr(3-NO2)]IIRQGARGDTFFIISKGTVNVTREDSPSEDPVFLRTLGKGDWFGEKALQGEDVRTANVIAAEAVTCLVIDRDSFKHLIGGLDDVSNKAYEDAEAKAKYEAEAAFFANLKLSDFNIIDTLGVGGFGRVELVQLKSEESKTFAMKILKKRHIVDTRQQEHIRSEKQIMQGAHSDFIVRLYRTFKDSKYLYMLMEACLGGELWTILRDRGSFEDSTTRFYTACVVEAFAYLHSKGIIYRDLKPENLILDHRGYAKLVDFGFAKKIGFGKKTWTFCGTPEYVAPEIILNKGHDISADYWSLGILMYELLTGSPPFSGPDPMKTYNIILRGIDMIEFPKKIAKNAANLIKKLCRDNPSERLGNLKNGVKDIQKHKWFEGFNWEGLRKGTLTPPIIPSVASPTDTSNFDSFPEDNDEPPPDDNSGWDIDF
Vmax (PKG-1α [1]): 0.28 ± 0.01 pmol/min/µg
